Literature values in article PMC4321732.

What was measured:
[1] = target: Histone H4K20me2 (Homo sapiens) (UniProt P62805)
[2] = target: p53K382me2 (Homo sapiens) (UniProt P04637)
[3] = target: p53K370me2 (Homo sapiens) (UniProt P04637)
p53K370me2 (Homo sapiens), sequence (P04637 whole entry): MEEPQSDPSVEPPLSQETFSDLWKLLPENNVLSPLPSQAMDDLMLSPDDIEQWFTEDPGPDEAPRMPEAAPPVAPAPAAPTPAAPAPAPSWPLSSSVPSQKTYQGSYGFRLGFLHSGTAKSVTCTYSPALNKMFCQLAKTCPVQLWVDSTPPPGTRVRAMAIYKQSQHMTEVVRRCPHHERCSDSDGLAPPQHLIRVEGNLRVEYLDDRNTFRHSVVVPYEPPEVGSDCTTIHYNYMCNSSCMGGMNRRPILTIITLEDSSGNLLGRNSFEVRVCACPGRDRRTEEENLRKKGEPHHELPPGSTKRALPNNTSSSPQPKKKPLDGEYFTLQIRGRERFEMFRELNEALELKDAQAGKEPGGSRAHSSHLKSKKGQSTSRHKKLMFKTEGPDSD

53BP1 TTD tandem Tudor domain, sequence (Q12888 1484-1603): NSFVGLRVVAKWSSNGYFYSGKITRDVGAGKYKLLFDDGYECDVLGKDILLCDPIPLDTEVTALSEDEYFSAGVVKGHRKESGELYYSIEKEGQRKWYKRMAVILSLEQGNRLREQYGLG
p53K382me2 (Homo sapiens), sequence (P04637 whole entry): as the sequence (P04637 whole entry) above

Kd [1]: 1300 nM | Kd [2]: 900 nM | Kd [3]: 20000 nM
Substance: 53BP1 TTD tandem Tudor domain (from UniProt Q12888)
